Sequences and labels used below:
B3: MIS12C^NSL1-258 (MIS12 complex with NSL1 residues 1–258) (complex, human)
chain 1: MSVDPMTYEAQFFGFTPQTCMLRIYIAFQDYLFEVMQAVEQVILKKLDGIPDCDISPVQIRKCTEKFLCFMKGHFDNLFSKMEQLFLQLILRIPSNILLPEDKCKETPYSEEDFQHLQKEIEQLQEKYKTELCTKQALLAELEEQKIVQAKLKQTLTFFDELHNVGRDHGTSDFRESLVSLVQNSRKLQNIRDNVEKESKRLKIS
chain 2: MAEASSANLGSGCEEKRHEGSSSESVPPGTTISRVKLLDTMVDTFLQKLVAAGSYQRFTDCYKCFYQLQPAMTQQIYDKFIAQLQTSIREEISDIKEEGNLEAVLNALDKIVEEGKVRKEPAWRPSGIPEKDLHSVMAPYFLQQRDTLRRHVQKQEAENQQLADAVLAGRRQVEELQLQVQAQQQAWQALHREQRELVAVLREPE
chain 3: MTSVTRSEIIDEKGPVMSKTHDHQLESSLSPVEVFAKTSASLEMNQGVSEERIHLGSSPKKGGNCDLSHQERLQSKSLHLSPQEQSASYQDRRQSWRRASMKETNRRKSLHPIHQGITELSRSISVDLAESKRLGCLLLSSFQFSIQKLEPFLRDTKGFSLESFRAKASSLSEELKHFADGLETDGTLQKCFEDSNGKASDFSLEASVAEMKEYITKFSLERQTWDQLLLHYQQEAKEILSRGSTEAKITEVKVEPMTYLGSSQNEVLNTKPDYQKILQNQSKVFDCMELVMDELQGSVKQLQAFMDESTQCFQKVSVQLGKRSMQQLDPSPARKLLKLQLQNPPAIHGSGSGSCQ
chain 4: MAGSPELVVLDPPWDKELAAGTESQALVSATPREDFRVRCTSKRAVTEMLQLCGRFVQKLGDALPEEIREPALRDAQWTFESAVQENISINGQAWQEASDNCFMDSDIKVLEDQFDEIIVDIATKRKQYPRKILECVIKTIKAKQEILKQYHPVVHPLDLKYDPDPAPHMENLKCRGETVAKEISEAMKSLPALIEQGEGFSQVLRMQPVIHLQRIHQEVFSSCHRKPDAKPENFITQIETTPTETASRKTSDMVLKR

In test [1] the target is fluorescein-labeled synthetic peptides encompassing residues 205–217 or 202–219 of NSL1. Put plainly: fluorescence polarisation. For orientation: Fluorescence polarisation rises when a labelled molecule tumbles more slowly, as on binding a larger partner.
The target in test [2] is T1, KNL1^2106–2316 (C-terminal region of KNL1) (human, UniProt Q8NG31-2 2106-2316).
T1 sequence (looked up): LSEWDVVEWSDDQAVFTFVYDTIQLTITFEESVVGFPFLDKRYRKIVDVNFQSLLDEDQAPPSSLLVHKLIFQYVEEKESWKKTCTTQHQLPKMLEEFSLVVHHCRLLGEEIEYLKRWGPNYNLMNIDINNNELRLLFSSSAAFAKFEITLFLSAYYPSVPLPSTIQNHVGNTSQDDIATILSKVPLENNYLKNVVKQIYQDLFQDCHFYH
In words: ITC.

The target of test [3] is T2, NDC80 complex (four-subunit NDC80C) (human, UniProt O14777 1-642; Q9BZD4 1-464; Q8NBT2 1-197; Q9HBM1 1-224). Put plainly: SEC. A general note: SEC sorts molecules by how far they enter the pores of the column.
Test [4] has as its target T2, NDC80 complex (four-subunit NDC80C). In words: ITC. Background: Isothermal titration calorimetry measures the heat released or taken up as one component is titrated into another.
For test [5], the target named is B3. Put plainly: ITC.
Test [6] deals with B3. Put plainly: AUC.

Values joined by “and” are separate entries in the source; they are usually repeats but may differ in a detail not shown here. Equal values may be shown once.

The record followed here is publication PMC2935574 (The Journal of Cell Biology, 2010).

For orientation: Kd means the equilibrium constant for the complex coming apart. Broadly, the stoichiometry N is a count of units in the complex or per binding partner.

T2 sequence (O14777 whole entry, chain 1 of 4): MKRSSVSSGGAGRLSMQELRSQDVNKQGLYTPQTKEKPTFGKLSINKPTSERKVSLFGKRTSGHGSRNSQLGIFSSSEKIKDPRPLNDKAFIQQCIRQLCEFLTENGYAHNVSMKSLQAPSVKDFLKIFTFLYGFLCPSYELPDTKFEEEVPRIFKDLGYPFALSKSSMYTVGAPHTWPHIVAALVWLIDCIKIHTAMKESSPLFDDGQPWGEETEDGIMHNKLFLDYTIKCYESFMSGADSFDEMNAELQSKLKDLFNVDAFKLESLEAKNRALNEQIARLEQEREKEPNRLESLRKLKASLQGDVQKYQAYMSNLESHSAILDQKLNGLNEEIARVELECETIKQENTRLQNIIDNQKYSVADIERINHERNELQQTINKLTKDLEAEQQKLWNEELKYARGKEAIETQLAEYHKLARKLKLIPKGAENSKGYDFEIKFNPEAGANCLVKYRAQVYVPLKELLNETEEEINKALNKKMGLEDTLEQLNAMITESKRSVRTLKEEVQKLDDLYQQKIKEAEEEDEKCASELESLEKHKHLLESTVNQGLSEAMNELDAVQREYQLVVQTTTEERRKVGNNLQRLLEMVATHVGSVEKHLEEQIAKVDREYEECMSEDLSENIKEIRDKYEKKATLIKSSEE
T2 sequence (Q9BZD4 whole entry, chain 2 of 4): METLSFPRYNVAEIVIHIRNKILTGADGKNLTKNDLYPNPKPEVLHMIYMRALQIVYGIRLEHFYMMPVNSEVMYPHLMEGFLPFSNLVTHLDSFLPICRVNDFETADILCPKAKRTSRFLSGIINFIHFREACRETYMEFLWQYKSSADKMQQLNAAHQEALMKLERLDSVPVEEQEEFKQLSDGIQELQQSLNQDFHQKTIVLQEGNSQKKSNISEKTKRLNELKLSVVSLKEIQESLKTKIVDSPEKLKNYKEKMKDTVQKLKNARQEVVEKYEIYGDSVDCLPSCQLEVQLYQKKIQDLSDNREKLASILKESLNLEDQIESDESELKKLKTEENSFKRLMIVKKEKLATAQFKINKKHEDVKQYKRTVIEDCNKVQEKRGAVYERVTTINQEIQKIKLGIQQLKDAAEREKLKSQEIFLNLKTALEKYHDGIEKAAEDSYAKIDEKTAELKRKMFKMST
T2 sequence (Q8NBT2 whole entry, chain 3 of 4): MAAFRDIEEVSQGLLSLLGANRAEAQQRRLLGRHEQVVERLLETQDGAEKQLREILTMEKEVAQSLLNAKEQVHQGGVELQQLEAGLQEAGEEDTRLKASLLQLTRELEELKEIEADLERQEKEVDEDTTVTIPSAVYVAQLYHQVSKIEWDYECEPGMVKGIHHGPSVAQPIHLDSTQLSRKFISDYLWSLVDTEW
T2 sequence (Q9HBM1 whole entry, chain 4 of 4): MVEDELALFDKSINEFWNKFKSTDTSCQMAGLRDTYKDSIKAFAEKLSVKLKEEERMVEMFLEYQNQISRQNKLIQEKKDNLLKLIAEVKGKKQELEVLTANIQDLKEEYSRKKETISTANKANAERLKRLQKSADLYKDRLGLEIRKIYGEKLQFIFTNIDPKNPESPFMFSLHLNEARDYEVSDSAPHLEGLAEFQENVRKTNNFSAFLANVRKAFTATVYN

Molecule “HP1^110–191 (chromoshadow domain of HP1-α) (from UniProt P45973 110-191) (domain or fragment)” came in with a Kd in test [1] of 400 to 500 nM.

B1: NSL1^227–281 (C-terminal tail of NSL1) (domain or fragment, human, UniProt Q96IY1 227-281, looked up)
chain: KPDAKPENFITQIETTPTETASRKTSDMVLKRKQTKDCPQRKWYPLRPKKINLDT
In the case of B1, in test [2], the Kd was ~63 nM and ~130 nM; the “stoichiometry N” value worked out at 1.

B2: MIS12C^NSL1-227 (MIS12 complex with a more extensive C-terminal deletion of NSL1) (complex, human)
chain 1: MSVDPMTYEAQFFGFTPQTCMLRIYIAFQDYLFEVMQAVEQVILKKLDGIPDCDISPVQIRKCTEKFLCFMKGHFDNLFSKMEQLFLQLILRIPSNILLPEDKCKETPYSEEDFQHLQKEIEQLQEKYKTELCTKQALLAELEEQKIVQAKLKQTLTFFDELHNVGRDHGTSDFRESLVSLVQNSRKLQNIRDNVEKESKRLKIS
chain 2: MAEASSANLGSGCEEKRHEGSSSESVPPGTTISRVKLLDTMVDTFLQKLVAAGSYQRFTDCYKCFYQLQPAMTQQIYDKFIAQLQTSIREEISDIKEEGNLEAVLNALDKIVEEGKVRKEPAWRPSGIPEKDLHSVMAPYFLQQRDTLRRHVQKQEAENQQLADAVLAGRRQVEELQLQVQAQQQAWQALHREQRELVAVLREPE
chain 3: MTSVTRSEIIDEKGPVMSKTHDHQLESSLSPVEVFAKTSASLEMNQGVSEERIHLGSSPKKGGNCDLSHQERLQSKSLHLSPQEQSASYQDRRQSWRRASMKETNRRKSLHPIHQGITELSRSISVDLAESKRLGCLLLSSFQFSIQKLEPFLRDTKGFSLESFRAKASSLSEELKHFADGLETDGTLQKCFEDSNGKASDFSLEASVAEMKEYITKFSLERQTWDQLLLHYQQEAKEILSRGSTEAKITEVKVEPMTYLGSSQNEVLNTKPDYQKILQNQSKVFDCMELVMDELQGSVKQLQAFMDESTQCFQKVSVQLGKRSMQQLDPSPARKLLKLQLQNPPAIHGSGSGSCQ
chain 4: MAGSPELVVLDPPWDKELAAGTESQALVSATPREDFRVRCTSKRAVTEMLQLCGRFVQKLGDALPEEIREPALRDAQWTFESAVQENISINGQAWQEASDNCFMDSDIKVLEDQFDEIIVDIATKRKQYPRKILECVIKTIKAKQEILKQYHPVVHPLDLKYDPDPAPHMENLKCRGETVAKEISEAMKSLPALIEQGEGFSQVLRMQPVIHLQRIHQEVFSSCHRK
On to B2, for which the binding result in test [3] is reported as “binds”.
Regarding B3, in test [4], the Kd was about 10 nM.

B4: MIS12C–KNL1^2106–2316 (five-subunit complex) (complex, human)
chain 1: MSVDPMTYEAQFFGFTPQTCMLRIYIAFQDYLFEVMQAVEQVILKKLDGIPDCDISPVQIRKCTEKFLCFMKGHFDNLFSKMEQLFLQLILRIPSNILLPEDKCKETPYSEEDFQHLQKEIEQLQEKYKTELCTKQALLAELEEQKIVQAKLKQTLTFFDELHNVGRDHGTSDFRESLVSLVQNSRKLQNIRDNVEKESKRLKIS
chain 2: MAEASSANLGSGCEEKRHEGSSSESVPPGTTISRVKLLDTMVDTFLQKLVAAGSYQRFTDCYKCFYQLQPAMTQQIYDKFIAQLQTSIREEISDIKEEGNLEAVLNALDKIVEEGKVRKEPAWRPSGIPEKDLHSVMAPYFLQQRDTLRRHVQKQEAENQQLADAVLAGRRQVEELQLQVQAQQQAWQALHREQRELVAVLREPE
chain 3: MTSVTRSEIIDEKGPVMSKTHDHQLESSLSPVEVFAKTSASLEMNQGVSEERIHLGSSPKKGGNCDLSHQERLQSKSLHLSPQEQSASYQDRRQSWRRASMKETNRRKSLHPIHQGITELSRSISVDLAESKRLGCLLLSSFQFSIQKLEPFLRDTKGFSLESFRAKASSLSEELKHFADGLETDGTLQKCFEDSNGKASDFSLEASVAEMKEYITKFSLERQTWDQLLLHYQQEAKEILSRGSTEAKITEVKVEPMTYLGSSQNEVLNTKPDYQKILQNQSKVFDCMELVMDELQGSVKQLQAFMDESTQCFQKVSVQLGKRSMQQLDPSPARKLLKLQLQNPPAIHGSGSGSCQ
chain 4: MAGSPELVVLDPPWDKELAAGTESQALVSATPREDFRVRCTSKRAVTEMLQLCGRFVQKLGDALPEEIREPALRDAQWTFESAVQENISINGQAWQEASDNCFMDSDIKVLEDQFDEIIVDIATKRKQYPRKILECVIKTIKAKQEILKQYHPVVHPLDLKYDPDPAPHMENLKCRGETVAKEISEAMKSLPALIEQGEGFSQVLRMQPVIHLQRIHQEVFSSCHRKPDAKPENFITQIETTPTETASRKTSDMVLKRKQTKDCPQRKWYPLRPKKINLDT
chain 5: LSEWDVVEWSDDQAVFTFVYDTIQLTITFEESVVGFPFLDKRYRKIVDVNFQSLLDEDQAPPSSLLVHKLIFQYVEEKESWKKTCTTQHQLPKMLEEFSLVVHHCRLLGEEIEYLKRWGPNYNLMNIDINNNELRLLFSSSAAFAKFEITLFLSAYYPSVPLPSTIQNHVGNTSQDDIATILSKVPLENNYLKNVVKQIYQDLFQDCHFYH
Turning to B4, the Kd in test [4] came out at 4 nM.

B5: SPC24^57–197–SPC25^70–224 (complex, human)
chain 1: TMEKEVAQSLLNAKEQVHQGGVELQQLEAGLQEAGEEDTRLKASLLQLTRELEELKEIEADLERQEKEVDEDTTVTIPSAVYVAQLYHQVSKIEWDYECEPGMVKGIHHGPSVAQPIHLDSTQLSRKFISDYLWSLVDTEW
chain 2: RQNKLIQEKKDNLLKLIAEVKGKKQELEVLTANIQDLKEEYSRKKETISTANKANAERLKRLQKSADLYKDRLGLEIRKIYGEKLQFIFTNIDPKNPESPFMFSLHLNEARDYEVSDSAPHLEGLAEFQENVRKTNNFSAFLANVRKAFTATVYN
Take B5: in test [5], the Kd is about 10 nM. Also, the “stoichiometry N” value in test [6] came out at 1.
